The source of these data is the supplement of paper PMC12042874.

The nature of the series: amyloid nucleation score (Sup35N fusion, yeast selection) (log enrichment); library NNK1; higher = more nucleation; inactive = no reads after selection. The procedure, abridged:
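Sup35N was fused to peptides of 20 random codons and expressed in psi-negative yeast, which were induced with 100 μM copper sulfate for 24 hours and then grown on medium lacking adenine and uracil for 7 days at 30°C. Plasmid inserts from input and output were sequenced on Illumina. The nucleation score is the DiMSum log enrichment of output over input reads, centred on the mode score of non-aggregating sequences. Sequences with under 100 input reads were left out, and random libraries had three technical output replicates.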

± gives the uncertainty stated by the source.

Substance LYFVSSAFSSQS showed an amyloid nucleation score of 0.014 ± 0.27. With CNTPSTCNCVIVRPSYPSQY, the amyloid nucleation score was -0.088 ± 0.61. The substance PHGHVEYLIFFCNKPGSHGS displayed an amyloid nucleation score of 1.49 ± 0.3. For the substance SSFLASGL, the amyloid nucleation score is -0.529 ± 1.3. In turn, LAKFESSEVACSLFFAISLA had an amyloid nucleation score of -0.997 ± 0.94. Consider VLSRIHCCRTPVDNGFRPQG, for which the amyloid nucleation score is -0.95 ± 0.94. The substance RSSSCKWV showed an amyloid nucleation score of -0.53 ± 0.75.

IFNCVVLFSNTFMGYRFPFH displayed an amyloid nucleation score of 6.273 ± 0.045. HSYTRIE came in with an amyloid nucleation score of -0.413 ± 0.24.

GSCCVKCDIHI: the amyloid nucleation score turned out to be 0.167 ± 0.53. Regarding GLIRSSVEVMLHGVHRWDPY, the amyloid nucleation score was found to be 0.037 ± 0.42. For the substance RIYLRFYLIIR, the amyloid nucleation score amounted to 1.07 ± 0.85.

As to ISWFRCLEVWPSYGIPDWKN, the amyloid nucleation score was -0.467 ± 0.28. In turn, PFRNKNQMRWDMKM yielded an amyloid nucleation score of 0.209 ± 0.37. Take VGEQSCLLFYMKQ: the amyloid nucleation score came out at 0.247 ± 0.29.

AIYVRW: the amyloid nucleation score turned out to be 1.08 ± 0.22. In turn, VRVMILHLSDILYYLWYGTI gave an amyloid nucleation score of 5.22 ± 0.078. SETFEHRLRD came in with an amyloid nucleation score of -0.437 ± 0.28. With TDAPHTCWLFFLYSVSFLIV the figure was -0.204 ± 0.43. With SGIYGCSGRQDIKSKNYGSR the figure was 1.12 ± 0.56; with YRFSGEGALLASKWLINNCT, -0.224 ± 0.4. Next, AGRIETIEIGSSCLSVCGGY: 0.328 ± 0.58; IDWTVDKRSKLMYRGKGSVA: -0.306 ± 0.97. PVKGGVMGF returned an amyloid nucleation score of -0.35 ± 1.4. Take PAGTGINLMICVARGGRTSG: the amyloid nucleation score worked out at 5.24 ± 0.1.

For the substance MVRNKQKLLKGQ, the amyloid nucleation score was 0.375 ± 0.49. With MWTRHCN the figure was 0.483 ± 0.55; with CSWVTPNGRVLHCLTNLYYY, 0.297 ± 0.59; with IIRKPGLTRTCHTVLTAASE, 0.511 ± 0.91. As to VGLLKAAEDGVLRIGVRRSW, the amyloid nucleation score turned out to be 0.631 ± 0.8. Regarding SSFARL, the amyloid nucleation score amounted to 1.12 ± 0.55. Consider TYERICGCMFCLTCSSDAF, for which the amyloid nucleation score was -0.19 ± 0.71. With LSWFPA the figure was 0.179 ± 0.27; with VDLPFMLAKVR, 0.856 ± 0.71; with QRFQAGPCRFSE, -0.394 ± 0.95. With SLFQGERIPFGWNEGQTKDV the figure was -0.469 ± 1.2; with VMTWHL, -0.73 ± 0.45. AKLYMCSCINCTASHEITYF came in with an amyloid nucleation score of 8.419 ± 0.045.

In the case of EMEVLSVPSVLLVIVVR, the amyloid nucleation score is -1.04 ± 0.66.

SDYFYSGKGFFLAMGLSMSR had an amyloid nucleation score of -1.5 ± 1.8. For the substance PCPSINWLMIINNR, the amyloid nucleation score is 7.743 ± 0.051. The substance LNTGCDANQILAVCSRGVGV returned an amyloid nucleation score of 0.793 ± 0.43. EFSVFYMGFGVM: the amyloid nucleation score result was “inactive”.

Turning to RVQKNLINDFSESYPLCHWY, the amyloid nucleation score was -0.553 ± 0.42. QLTSACWYAVTGGGSTAGEG returned an amyloid nucleation score of -0.965 ± 1.4. Turning to SLTCWG, the amyloid nucleation score stood at 0.436 ± 0.33. Take VAWLNCSTKVGL: the amyloid nucleation score is -0.053 ± 1.3. Substance HYDSMTAL registered an amyloid nucleation score of 0.491 ± 0.62.

Regarding MCNDGSYYAILACGVSLRVL, the amyloid nucleation score result was “inactive”.

Substance VPCNYKGSLSGRRYLSAKQS returned an amyloid nucleation score of 0.011 ± 0.34. CVFYCRR yielded an amyloid nucleation score of 0.091 ± 1.1. KLYWTYLTPGTNSGLQSPDS gave an amyloid nucleation score of -0.288 ± 0.62. Consider KLCCSLVNSIMNLFAMSAAV, for which the amyloid nucleation score result was “inactive”. As for YASGLNSHDELVFYFYNRER, the amyloid nucleation score entry was “inactive”. With VGRSQRMQKTLKVSVWYWIN the figure was 0.117 ± 0.7. In turn, TGTHDVVVAVGYR gave an amyloid nucleation score of -0.658 ± 0.54. With NLILDQVNTYSLCSTIFI, the amyloid nucleation score came out at 7.291 ± 0.058. YRGMGTTPKFT returned an amyloid nucleation score of 0.356 ± 1. Substance GRCDWTVLDMVDMIGKVESQ displayed an amyloid nucleation score of 0.273 ± 0.25. Substance EPKVSSEQKVFDSCYT came in with an amyloid nucleation score of 0.417 ± 0.61.

Consider PYAAGENWWMCLQRVPVTIV, for which the amyloid nucleation score was 0.027 ± 0.67.

LWFDYFPF: the amyloid nucleation score is -0.096 ± 0.43. In turn, NEWKSLSINEMRGSMTINNS returned an amyloid nucleation score of 1.44 ± 0.12. SYMNGKWMSMWVRLWGCLAF gave an amyloid nucleation score of 0.004 ± 0.48.

For FIRGDANSLLHYLSDCVRE, the amyloid nucleation score worked out at 1.37 ± 0.9. With SVHSLMRDRISVPPRIVKNP the figure was -0.008 ± 0.61; with YCDNDSYH, 1.42 ± 0.44. With NMTSYSIYGELE the figure was -0.341 ± 0.21; with CRLSTS, -0.966 ± 0.42. Turning to DLFCFELVDHTLLLGWTTVQ, the amyloid nucleation score was -0.564 ± 0.66. As to LCFMLEKWHLF, the amyloid nucleation score is -0.566 ± 1.1. Next, NLTSVPYMPLECDYHARSYF: -1.55 ± 1.2; PQRRGHIRIDRILSSTWTVA: 0.197 ± 0.39; CDLFDFCISSKCRFKFLGRM: -0.131 ± 0.9. ITVDAMIKSVYFITDSYRHF showed an amyloid nucleation score of 0.911 ± 0.26. YKGNKCCVKMMACWGTGCLP gave an amyloid nucleation score of 1.98 ± 0.37. The substance ITYSTYLMSCGRSMYQGWKV showed an amyloid nucleation score of 0.372 ± 0.23. LSMNICSLNSSRYKPP: the amyloid nucleation score was determined as 2.79 ± 0.098. Next, NGWTFYCSCSWCGI: 8.306 ± 0.049; EQENMCSVRQACIYH: 1.57 ± 0.29; SWCFN: 1.34 ± 0.59. Next, VIASELSSCFSLRHNVVTTS: -0.469 ± 1.2. Consider AFRRRGSVPRGRASPHIFVV, for which the amyloid nucleation score was 7.948 ± 0.065. In the case of TFGVVEFSRNRGMSLCETLN, the amyloid nucleation score is 0.386 ± 0.42. On to LSYNTISGFIAYIIDMSPFV, for which the amyloid nucleation score result is “inactive”. Substance HRRSLRVGLSDIHLLAACAE showed an amyloid nucleation score of -0.897 ± 1.6. With RLYFRSSYDCDETRWKEKYM the figure was 0.049 ± 0.38. With ALAWWVLFL the figure was 0.132 ± 1.

CIYSICYFCNS: the amyloid nucleation score came out at 7.924 ± 0.043. Next, CIFAYKCSIYERESL: 0.776 ± 0.49. Consider TFGSETESMLNTKYSSGCVG, for which the amyloid nucleation score was determined as 0.067 ± 0.55. For SNDKHKIRIYAGYFFVQRGC, the amyloid nucleation score came out at 0.312 ± 0.37. Next, LWSVKEGWGRPEAGHRQLWG: -0.413 ± 0.52. VENNWIWVGRTLNATLDSHQ had an amyloid nucleation score of 0.082 ± 0.26. FCNNATSTQGNVFSGLLWTL displayed an amyloid nucleation score of -0.202 ± 0.27. With INVPIWGNLQDWLVI, the amyloid nucleation score is -0.924 ± 0.52.

With DNKFYHKVTDRRFLIPIFQI, the amyloid nucleation score was -0.331 ± 0.37. YKNVCSDSVTLRKPGRVVLL displayed an amyloid nucleation score of -0.278 ± 0.67. Substance SLLDWCYINRHM displayed an amyloid nucleation score of 0.604 ± 0.44. Regarding IRAQGHNYWALMRVAEWVVG, the amyloid nucleation score turned out to be 1.75 ± 0.42. For the substance LECYEVYRYRKCLCCIVCVC, the amyloid nucleation score was found to be 0.633 ± 0.42. With TAYVLLWTRTVFVFPEVHTF, the amyloid nucleation score is 0.887 ± 0.43.

Consider FVDFMQRNWGLVRVPCHVSL, for which the amyloid nucleation score result was “inactive”.

Turning to LDFMSLHN, the amyloid nucleation score stood at 0.218 ± 1.

HGTCRC: the amyloid nucleation score was determined as 0.034 ± 0.68. As to VCFMKCLLSCAIEYSRRLDI, the amyloid nucleation score came to 1.9 ± 0.64. As for SSLRPRKCCWRKTRRLSKGG, the amyloid nucleation score amounted to 0.441 ± 0.67. Turning to RLNNRRFLSWRCTNNQCWRV, the amyloid nucleation score was -0.159 ± 0.86.

Consider MSMYYISSCIISLSQVGMYV, for which the amyloid nucleation score came to 1.26 ± 0.38.

Take WVRSNKGQAGSG: the amyloid nucleation score was determined as 0.886 ± 1. For TGLPFYEEIMRTPHM, the amyloid nucleation score is -0.766 ± 0.5.

PYSWVEKASY had an amyloid nucleation score of -0.322 ± 0.78.

Turning to HAFKPSAAPQWRTYPRFRSG, the amyloid nucleation score entry was “inactive”. For RFRVEGPMYFICICKRLFTY, the amyloid nucleation score is -0.555 ± 0.44. Substance SVCMLPIDGMGEEVRVFPGV displayed an amyloid nucleation score of -0.641 ± 0.62.

As for SDRGSKPMSVYNLRC, the amyloid nucleation score was found to be 0.305 ± 0.75.

Substance SNSLTFYFSKCYTSCSNLLG had an amyloid nucleation score of 6.079 ± 0.057. The substance GVGWVDGWSGSCFHWTGWCT gave an amyloid nucleation score of 3.46 ± 0.078.

On to ENYKVGACVYLPWPFHENTG, for which the amyloid nucleation score was -0.096 ± 0.56. In the case of YIDVGICYGGDERVLFLV, the amyloid nucleation score stood at 1.2 ± 0.61. In the case of GRSGCCWMS, the amyloid nucleation score turned out to be 2.77 ± 0.19. Next, RFFISYTFSWPRYLVGKDLL: -0.936 ± 0.34; MWHGSVTMGGIRGTRDSVHQ: 0.792 ± 0.53; SKVCE: 0.085 ± 0.66.

GPTCDLRFAFNPHVTYGGHG displayed an amyloid nucleation score of 1.29 ± 0.64. In turn, FRLVNIIR displayed an amyloid nucleation score of 0.317 ± 0.33. Substance WATLALSR came in with an amyloid nucleation score of 0.5 ± 0.4.

Consider KCYLLRKVGCWHQHLDGHFG, for which the amyloid nucleation score is -0.429 ± 0.66.

Regarding VLKCHSGSCRIYTNDSYVAL, the amyloid nucleation score was found to be 0.387 ± 0.17. Next, FFAFYDVHPLHLGDTTLGGW: 3.29 ± 0.14; KWVIGRTVLGRADVRWSSGR: 1.58 ± 0.46; FEYFCRRDRLTK: -0.209 ± 0.25.

Substance LAIFSMFALFSIFGWSNDFT gave an amyloid nucleation score of -0.309 ± 0.43. Consider RRSWVFFVDWFIFVCLCVNG, for which the amyloid nucleation score entry was “inactive”. The substance RRILGRYRC gave an amyloid nucleation score of -0.129 ± 1.1. Next, TCRCTKLTSAYMLRVWSVQF: -0.332 ± 0.55. Next, YLREVYFFMGVWDRK: 0.15 ± 0.44; SSRNRV: -1.07 ± 0.59. Turning to IKWSGVVASGGDNPLTDHSR, the amyloid nucleation score is -0.05 ± 0.71. LLVPHYFLEL registered an amyloid nucleation score of 0.222 ± 0.43. Substance MVMNTKCE had an amyloid nucleation score of -0.643 ± 0.55. SYLGSAAIYVCLAGRPSGQR registered an amyloid nucleation score of -0.725 ± 1.2.
